Measured values taken from the nanobody polyreactivity screen of Harvey et al. (2022).

Experiment: yeast display, Sf9 membrane polyspecificity reagent, FACS + sequencing; frameworks hold sequencing errors
Outline: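 Synthetic nanobody libraries on Saccharomyces cerevisiae BJ5465 were galactose-induced for 36–48 hours, stained 1 hour at 4 °C with 10% biotinylated, detergent-solubilized Sf9 membrane reagent and enriched on streptavidin microbeads. FACS then separated cells into low and high (top ~1%) gates by anti-HA (expression) and streptavidin (reagent binding) fluorescence. Genes were colony-PCR amplified, MiSeq 2 × 250 sequenced and CDR-length filtered. A clone's polyreactivity label is that of its gate of origin.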

Sequence	polyreactivity (PSR sort gate)
QVQLVESGGGLVQAGGSLRLSCAASGSIFPNNAMGWYRQAPGKERELVAAISSSARTYYADSVKGRFTISRDNAKNTVYLQMNSLKPEDTAVYYCAARWYGRFLMGYWGQGTQVTVSS	high polyreactivity
QVQLGESGGVLVQAGGSLSLSCAASGNIFGRYAMGWYRQAPGKEWELVAANTRSAGSTYYADSVKGRFTISRDNEKTTVYFQMNSLKPEDTAVYYCAAAHWGYAYRRYGYGGQGTQVTVSS	high polyreactivity
QVQLVESGGGLVQAGGSLRLSCAASGRTLFPYAMGWYIQAPGKERELVAAITSRGTSTYYADSVKGRFTISRDIAKNNVYLQMNSLKPEDTAVYYCAKDGWFWGWRFDYCGQGTQVTVSS	low polyreactivity
QVQLVESGGGLVQAGGSLRLSCATSGRTFSQYAMGWYRQAPGKERELVAVISGSGGSTYYADSVKGRFTISRDNAKNTVYLQINSLKPEDTAVYYCAKRATSWHQYDYWGQGTQVTVSS	low polyreactivity
QVQLAETGGGLVQAGGSLRLSCAASGSTFSVYAMGWYRQSPGKERELVATIPRGGSTYADSVKGRLTISRDNAKNTVYLQMNSLKPEDTAVYYCAADAYVSSQPMDYWGQGTQVTVSS	high polyreactivity
QVQLVESGGGLVQAGGILRLSCASSGFTFSLYDMGWYRQAPRKDRELVADINGSGGSTYYADSVKGRFTISRDNAKNTVYLQLNILKPEDTAVYYCAAGPPSRWWYIVDYGYWGQGTQVTVSS	high polyreactivity
QVQLVESGGGLVQAGGSLRLSCAASGRIFEVNVMGWYRQAPGKERELVAAITTGGGSTYYADSVKGRFTISRDNAKNTVYLQMNSLKPEDTAVYYCAAEPILIDEYWGQGTQVTVSS	low polyreactivity
QVQLEESGGVLVQAGGSLRLSCAASGRIFVWYAMGWYRQAPGKERELVAAISSADSTNYADSVKGRFTISRDNAKNTVYLQMNSLKPEDTAVYYCNAEGWPGNVVYGYYYWGQGTQVTVSS	low polyreactivity
QVQLVESGGGLVQAGGSLRLSCAASGRIFWHNTMGWYRQAPGKERELVATITGGDGNTYYADSVKGRFTISRDNAKNTVYLQMNSLKPEDNAVYYCAKAIVSYDYGRYGKWHEYWGQGTQVTVSS	low polyreactivity
QVQLVESGGGLVQAGGSLRLSCAASGSTFWNAMGWYRPGPGKERELVAAIRLSGGSTYYADSVKGRFTISRDNAKNTVYLQMNSLKPEDTAVYYCNADVTFGYWEYDYWGQGTQVTVSS	low polyreactivity
QVQLVESGGGLVQAGGSLRLSWAASGFTFGVNTMGWYRQAPGKERELVADISSGGRTNYADSVKGRFTISRDNAKNTVYLQMNRLKPEDTAVYYCAADNYSGTETDLTTLLDYWGQGTQVSVSS	low polyreactivity
QVQLVESWGGLVQAAASLRLICDASGRTIRWSAMGWYRPAPGKERELVATITTSGTPSYADSVKGRFTISRDNAKNTVYLQMNSLTPEDTAVYYCAADTYPWGGSSSYDWGQGTQVTVSS	high polyreactivity
QVQLVESGGGLVQAGGSLRLSCAASGSIFSGYAMGWYRQAPGKERELVAAITWRAASTYYADSVKGRFTISRDNAKNTVYLQMNSLKPEDTAVYYCAKEGGPKPAFYYWGQGTQVTVSS	low polyreactivity
QVQLVESGGGLVQAGGSLRLSFPASGFTFFGYAMGWYRQAPGKERELVAAISTIDGDTYYADSVKGRFTISRDNAKNTVYLQMNSLKPEDTAVYYCAADDYIDGDDYWGQGTQVTVSS	low polyreactivity
QVQLVESGGGLVQAGGSLRLSCAASGRIFDSYAMGWYRQAPGKERELVAVISNNDGTTYYADSVKGRFTISRDNAKTTVYLQMNSLKPEDTAVYYCNAVYSSGVDGSEGFDYWGQGTQVTVSS	low polyreactivity
QVQLVESGGGLVQAGGSLRLSCAAYGLTFPYYVMGWYRPAPGKERELVAAISSSGGSTYYADSVKGRFTISRDNAKNTVYLQMNSLKPEDTAVYYCAAVEIYLAYDLPYWSEMDYWGQGTQVTVSS	low polyreactivity
QVQLVESGGGLVQAGGSLRLSCAASGSTFVQYAMGWYRQAPGKERELVAAITSGGRTNYADSVKGRFTISRDNAKNTVYLQMNSLKPEDTAVYYCAARYGSNSPRGYEYYYWGQGTQVTVSS	low polyreactivity
